Test results reported in patent US20160024219A1 (Sanofi, published 2016).
Where a chain is given by its changes, count along the chain named. “And” between values parts separate entries of the source, which are not always exact repeats. Equal values may be shown once. Values belong to the binder of their own block, whether it stands above or below them.

How the values were obtained:
[1] = biological target: T1, CD52 peptide #741; experiment: BIACORE (SPR), CD52 peptide #741 chip, preliminary constant; antibody at week 0 (before incubation)
T1 construct: also called CD52 peptide #741 chip
Method: (§1) The proteins (85 μg) were diluted in PBS, pH 7.2, to 0.4 mg/ml, and incubated at 45° C. for 4 weeks. Their binding affinity to CD52 peptide was measured on BIACORE™.

[2] = biological target: T1, CD52 peptide #741; experiment: BIACORE (SPR), CD52 peptide #741 chip; week 0, reference of the normalization
Method: as §1

[3] = biological target: T1, CD52 peptide #741; experiment: BIACORE (SPR), CD52 peptide #741 chip; antibody after 4 weeks at 45C, pH 7.2 in PBS
Method: as §1

[4] = biological target: T1, CD52 peptide #741; experiment: BIACORE (SPR), CD52 peptide #741 chip, preliminary constant; antibody after 4 weeks at 45C, pH 7.2 in PBS
Method: as §1

[5] = biological target: T1, CD52 peptide #741; experiment: BIACORE (SPR), CD52 peptide #741 chip; antibody after 2 weeks at 45C, pH 7.2 in PBS
Method: as §1

[6] = biological target: T1, CD52 peptide #741; experiment: BIACORE (SPR), CD52 peptide #741 chip, preliminary constant; antibody after 2 weeks at 45C, pH 7.2 in PBS
Method: as §1

[7] = biological target: T1, CD52 peptide #741; experiment: BIACORE (SPR), CD52 peptide #741 chip, apparent KD; antibody after 2 weeks at 37C, 3 component buffer pH 7.5
From the text: (§2) Aliquots were taken at Week 2 and Week 4 (T2 and T4) to assess their affinity to CD52 peptide by BIACORE™.

[8] = biological target: T2, CD52 peptide mimotope (CGQNDTSQTSSPSAD); experiment: BIACORE, CD52 peptide on CM5 chip; antibody from CHO; CHO-produced Ab26
T2 construct: Immobilized at a low level on a CM5 chip via thiol chemistry using the N-terminal Cys; also called CD52 peptide chip
T2 peptide: CGQNDTSQTSSPSAD
Method: (§3) Several concentrations of anti-CD52 antibody made in HBS-EP running buffer (1 to 20 nM) were injected over the surface to monitor the binding. Kinetic analysis was performed using Scrubber2 software.

[9] = biological target: T2, CD52 peptide mimotope (CGQNDTSQTSSPSAD); experiment: BIACORE, CD52 peptide on CM5 chip; antibody from HEK293
Method: as §3

[10] = biological target: T2, CD52 peptide mimotope (CGQNDTSQTSSPSAD); experiment: BIACORE (SPR), CD52 peptide, purified antibody; concentrations used for fit 7.5nM - 0.2nM
[11] = biological target: T1, CD52 peptide #741; experiment: BIACORE (SPR), CD52 peptide #741 chip, apparent KD; antibody after 2 weeks at 45C, 3 component buffer (graph title: 45C pH7.4)
From the text: as §2

[12] = biological target: T2, CD52 peptide mimotope (CGQNDTSQTSSPSAD); experiment: BIACORE (SPR), CD52 peptide, antibody purified from CHO cells; inset table
Method: as §3

[13] = biological target: T1, CD52 peptide #741; experiment: BIACORE (SPR), CD52 peptide #741 chip, apparent KD; table 'after 37C incubation', T0, 3 component buffer pH 7.5
From the text: as §2

[14] = biological target: T1, CD52 peptide #741; experiment: BIACORE (SPR), CD52 peptide #741 chip, apparent KD; antibody after 4 weeks at 37C, 3 component buffer pH 7.5
From the text: as §2

[15] = biological target: T2, CD52 peptide mimotope (CGQNDTSQTSSPSAD); experiment: BIACORE, CD52 peptide on CM5 chip
Method: as §3

[16] = biological target: T2, CD52 peptide mimotope (CGQNDTSQTSSPSAD); experiment: BIACORE (SPR), CD52 peptide, purified antibody; concentrations used for fit 240nM - 1.9nM
[17] = biological target: T2, CD52 peptide mimotope (CGQNDTSQTSSPSAD); experiment: BIACORE (SPR), CD52 peptide, purified antibody; concentrations used for fit 240nM - 1.9nM; sheet's note to the asterisk: for more accurate KD, a higher concentration range should be used
[18] = biological target: T2, CD52 peptide mimotope (CGQNDTSQTSSPSAD); experiment: BIACORE (SPR), CD52 peptide, antibody purified from CHO cells; inset table, column kd; the sheet prints no unit, unit from Table 5 of the text
Method: as §3

[19] = biological target: T2, CD52 peptide mimotope (CGQNDTSQTSSPSAD); experiment: BIACORE (SPR), CD52 peptide, antibody purified from CHO cells; inset table, column ka; the sheet prints no unit, unit from Table 5 of the text
Method: as §3

[20] = biological target: T2, CD52 peptide mimotope (CGQNDTSQTSSPSAD); experiment: BIACORE, CD52 peptide on CM5 chip; antibody from CHO; CHO-produced Ab1; higher concentrations, up to 1900 nM
Method: as §3

[21] = biological target: T2, CD52 peptide mimotope (CGQNDTSQTSSPSAD); experiment: BIACORE, CD52 peptide on CM5 chip; antibody from HEK293; HEK293-produced Ab1; higher concentrations, up to 1900 nM
Method: as §3

[22] = biological target: T2, CD52 peptide mimotope (CGQNDTSQTSSPSAD); experiment: BIACORE (SPR), CD52 peptide, purified antibody; concentrations used for fit 240nM - 0.4nM
[23] = biological target: T2, CD52 peptide mimotope (CGQNDTSQTSSPSAD); experiment: BIACORE (SPR), CD52 peptide, purified antibody; concentrations used for fit 240nM - 0.4nM; sheet's note to the asterisk: for more accurate KD, a higher concentration range should be used

B2: Ab22 (antibody, human IgG1, kappa, V domains shown)
VH: EVQLVESGGGLVQPGGSLRLSCAASGFPFSNYWMNWVRQAPGKGLEWVGQIRLKSNNYATHYAESVKGRFTISRDDSKNSLYLQMNSLKTEDTAVYYCTPIDYWGQGTTVTVSS
VL: DIVMTQTPLSLSVTPGQPASISCKSSQSLLYSNSKTYLNWVLQKPGQSPQRLIYLVSKLDSGVPDRFSGSGSGTDFTLKISRVEAEDVGVYYCVQGSHFHTFGQGTKLEIKR
Kd [1]: 2.44 nM
Kd [4]: 187 nM

B5: Ab16 (antibody, human IgG1, kappa, V domains shown)
VH: B2 VH
VL: B2 VL with S34K
Kd [1]: 2.77 nM
Kd [6]: 7.17 nM

B7: Ab26 (antibody, human IgG1, kappa, V domains shown)
VH: B2 VH
VL: B2 VL with S34G
notes: Humanized anti-human CD52 monoclonal antibody; made in HEK293 and in CHO cells; also called CTL; CTL1
Kd [7]: 10 nM and 8.9 nM
Kd [8]: 2.6 nM
Kd [1]: 3 nM
Kd [4]: 25.4 nM
Kd [9]: 1.7 nM and 2.2 nM
Kd [10]: 2.4 nM and 2.8 nM
Kd [11]: 28 nM
Kd [12]: 2.61 nM
Kd [6]: 13.4 nM
Kd [13]: 4.3 nM and 4.2 nM
Kd [14]: 17.4 nM and 18.3 nM

B8: Ab10 (antibody, human IgG1, kappa, V domains shown)
VH: B2 VH
VL: B2 VL with S34A
Kd [1]: 5.63 nM
Kd [4]: 144 nM
Kd [10]: 5 nM

B9: Ab1 (antibody, human IgG1, kappa, V domains shown)
VH: B2 VH
VL: B2 VL with N33D, S34G
notes: made in HEK293 and in CHO cells
fold reduction in affinity compared to Ab26 [15]: > 400 fold
Kd [12]: 1250 nM
koff [16]: 0.421 s⁻¹
kon [16]: 1.1e+06 M⁻¹ s⁻¹
Kd [17]: 366 nM
koff [18]: 0.383 s⁻¹
kon [19]: 306000 M⁻¹ s⁻¹
Kd [20]: 1250 nM
koff [20]: 0.383 s⁻¹
kon [20]: 300000 M⁻¹ s⁻¹
Kd [21]: 1480 nM
koff [21]: 0.58 s⁻¹
kon [21]: 400000 M⁻¹ s⁻¹

B10: Ab3 (antibody, human IgG1, kappa, V domains shown)
VH: B2 VH
VL: B2 VL with N33K, S34G
notes: made in HEK293 cells
Kd [22]: 65.8 nM
koff [22]: 0.198 s⁻¹
kon [22]: 3.1e+06 M⁻¹ s⁻¹

B12: Ab4 (antibody, human IgG1, kappa, V domains shown)
VH: B2 VH
VL: B2 VL with N33Q, S34G
notes: made in HEK293 cells
koff [16]: 0.284 s⁻¹
kon [16]: 1.3e+06 M⁻¹ s⁻¹
Kd [17]: 222 nM

B13: Ab12 (antibody, human IgG1, kappa, V domains shown)
VH: B2 VH
VL: B2 VL with S34E
Kd [22]: 39.8 nM
koff [22]: 0.045 s⁻¹
kon [22]: 1.1e+06 M⁻¹ s⁻¹

B14: Ab25 (antibody, human IgG1, kappa, V domains shown)
VH: B2 VH
VL: B2 VL with S34Y
Kd [23]: 111 nM
koff [22]: 0.073 s⁻¹
kon [22]: 700000 M⁻¹ s⁻¹

Second part, the binder after the results:

Kd [1]: 4.12 nM
%T0 (affinity relative to T0) [2]: 100%
%T0 (affinity relative to T0) [3]: 46.5%
Kd [4]: 8.85 nM
%T0 (affinity relative to T0) [5]: 24.9%
Kd [6]: 16.5 nM
B1: Ab11 (antibody, human IgG1, kappa, V domains shown)
VH: B2 VH
VL: B2 VL with S34D

Kd [1]: 3.5 nM
Kd [4]: 33.3 nM
Kd [6]: 8.97 nM
B3: Ab14 (antibody, human IgG1, kappa, V domains shown)
VH: B2 VH
VL: B2 VL with S34H

Kd [1]: 3.49 nM
Kd [6]: 6.8 nM
B4: Ab20 (antibody, human IgG1, kappa, V domains shown)
VH: B2 VH
VL: B2 VL with S34Q

Kd [1]: 2.05 nM
Kd [4]: 4.15 nM
B6: Ab21 (antibody, human IgG1, kappa, V domains shown)
VH: B2 VH
VL: B2 VL with S34R

Kd [7]: 10.5 nM
Kd [1]: 5.15 nM
%T0 (affinity relative to T0) [2]: 100%
%T0 (affinity relative to T0) [3]: 29.8%
Kd [4]: 17.2 nM
%T0 (affinity relative to T0) [5]: 30.5%
Kd [10]: 5.6 nM
koff [10]: 0.019 s⁻¹
kon [10]: 3.4e+06 M⁻¹ s⁻¹
Kd [6]: 16.9 nM
Kd [13]: 7 nM
Kd [14]: 11.3 nM
B11: Ab24 (antibody, human IgG1, kappa, V domains shown)
VH: B2 VH
VL: B2 VL with S34V
